Each block holds one molecule with its values, some of them ahead of it. Peptide text beside a SMILES is read from it.
Biological target: T1, binary FGFR1c-Klotho complex (UniProt O35082+P11362)
T1 construct: The ectodomain of murine Klotho (A35 to K982) was purified from culture media; FLAG (C); made in house; host or cells: E. coli (FGFR1c, FGF23); HEK293 (Klotho ectodomain)
T1 sequence (P11362 142-365): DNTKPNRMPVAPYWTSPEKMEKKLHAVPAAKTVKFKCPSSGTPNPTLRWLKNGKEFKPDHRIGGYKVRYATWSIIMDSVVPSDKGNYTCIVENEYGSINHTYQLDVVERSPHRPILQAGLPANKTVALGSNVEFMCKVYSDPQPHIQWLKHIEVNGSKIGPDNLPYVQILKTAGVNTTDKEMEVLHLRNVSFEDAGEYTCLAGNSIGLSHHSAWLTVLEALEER
T1 sequence (O35082 35-982): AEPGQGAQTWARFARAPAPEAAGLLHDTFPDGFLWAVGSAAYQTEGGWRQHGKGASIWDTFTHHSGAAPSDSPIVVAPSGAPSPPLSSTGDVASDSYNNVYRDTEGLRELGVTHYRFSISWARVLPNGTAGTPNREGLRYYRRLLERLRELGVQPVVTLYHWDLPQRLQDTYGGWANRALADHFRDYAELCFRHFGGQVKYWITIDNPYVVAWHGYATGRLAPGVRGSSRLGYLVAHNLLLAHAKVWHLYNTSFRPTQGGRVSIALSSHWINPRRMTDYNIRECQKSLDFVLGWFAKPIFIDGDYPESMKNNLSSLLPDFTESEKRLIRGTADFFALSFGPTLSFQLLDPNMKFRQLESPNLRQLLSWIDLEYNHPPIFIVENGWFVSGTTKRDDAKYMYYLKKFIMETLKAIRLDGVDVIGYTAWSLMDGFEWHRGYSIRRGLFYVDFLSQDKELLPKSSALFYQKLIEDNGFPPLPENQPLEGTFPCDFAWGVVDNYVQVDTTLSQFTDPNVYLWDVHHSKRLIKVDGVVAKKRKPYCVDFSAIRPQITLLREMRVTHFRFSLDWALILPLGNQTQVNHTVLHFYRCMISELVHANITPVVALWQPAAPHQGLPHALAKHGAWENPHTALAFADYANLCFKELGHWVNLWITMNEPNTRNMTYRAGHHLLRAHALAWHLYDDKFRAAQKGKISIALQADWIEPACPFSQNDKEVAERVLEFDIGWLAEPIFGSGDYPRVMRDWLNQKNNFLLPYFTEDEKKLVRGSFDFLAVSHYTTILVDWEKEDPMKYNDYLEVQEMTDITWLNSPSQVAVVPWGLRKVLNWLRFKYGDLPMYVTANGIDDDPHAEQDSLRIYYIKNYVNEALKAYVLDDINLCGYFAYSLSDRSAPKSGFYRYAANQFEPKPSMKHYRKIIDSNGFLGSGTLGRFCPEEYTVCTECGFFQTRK
Experiment: SPR competition: FGFR1c-Klotho binding to immobilized FGF23^28-251
Design: species or system human FGFR1c, murine Klotho
Details: for inhibition of FGFR1c-Klotho binding to immobilized FGF23^28-251: FGF21^168-209 at molar ratios of 6:1 and 10:1; for rightward shift of dose-response curve compared to full-length FGF23: FIG. 3D
Experimental: A variety of interaction or binding assays can be used to determine that an agent specifically binds the binary FGFR-Klotho complex, such as the SPR interaction analysis described below. One aspect of the present invention utilizes SPR analysis of FGF23 protein/peptide binding to the binary FGFR-Klotho complex. The SPR analysis involved FGF23 protein/peptide immobilization by amine coupling on flow channels of a chip. Proteins were injected over the chip at a flow rate of 50 μl min^−1, and at the end of each protein injection (180 s), HBS-EP buffer (10 mM HEPES-NaOH, pH 7.4, 150 mM NaCl, 3 mM EDTA, 0.005% (v/v) polysorbate 20; 50 μl min^−1) was flowed over the chip to monitor dissociation for 180 s. The chip surface was then regenerated by injecting 50 μl of 2.0 M NaCl in 10 mM sodium acetate, pH 4.5. […] For each protein injection over a FGF23 protein/peptide chip, the nonspecific responses from the FHF1B control flow channel were subtracted from the responses recorded for the flow channel onto which FGF23 protein/peptide was immobilized. To analyze FGF23 binding to the binary FGFR1c-Klotho complex, FGF23^28-251 was coupled to a chip, and increasing concentrations of 1:1 complex of the ectodomains of FGFR1c and Klotho in HBS-EP buffer were passed over the chip. To measure binding of the C-terminal tail of FGF23 to the binary FGFR1c-Klotho complex, FGF23^180-251 was immobilized on a chip, and increasing concentrations of 1:1 complex of the ectodomains of FGFR1c and Klotho in HBS-EP buffer were passed over the chip. To examine whether the C-terminal tail of FGF23 can compete with full-length FGF23 for binding to the binary FGFR1c-Klotho complex, FGF23^28-251 was immobilized on a chip. Increasing concentrations of FGF23^180-251 were mixed with a fixed concentration of 1:1 complex of the ectodomains of FGFR1c and Klotho in HBS-EP buffer, and the mixtures were passed over the chip. As a control, competition of FGF23 in solution with immobilized FGF23 for binding to the binary FGFR1c-Klotho complex was studied. Increasing concentrations of FGF23^28-251 were mixed with a fixed concentration of 1:1 complex of the ectodomains of FGFR1c and Klotho in HBS-EP buffer, and the mixtures were passed over the FGF23 chip. Competition of the FGF23 C-terminal tail peptide with full-length FGF23 for binding to the binary FGFR1c-Klotho complex was also studied using the “reverse” SPR assay format, where FGF23^180-251 was immobilized on a chip and mixtures of a fixed concentration of 1:1 complex of the ectodomains of FGFR1c and Klotho with increasing concentrations of FGF23^28-251 were passed over the chip. As a control, competition of FGF23 C-terminal tail peptide in solution with immobilized FGF23 C-terminal tail peptide for binding to the binary FGFR1c-Klotho complex was analyzed. Increasing concentrations of FGF23^180-251 were mixed with a fixed concentration of 1:1 complex of the ectodomains of FGFR1c and Klotho in HBS-EP buffer, and the mixtures were passed over the FGF23^180-251 chip. To verify the specificity of the interaction between the FGF23 C-terminal tail and the FGFR1c-Klotho complex, FGF23^28-251 was immobilized on a chip. Increasing concentrations of FGF21^168-209 were mixed with a fixed concentration of 1:1 complex of the ectodomains of FGFR1c and Klotho in HBS-EP buffer, and the mixtures were passed over the chip. In addition, the ability of the FGF23 C-terminal tail peptide to interfere with binary complex formation between βKlotho and either FGF19 or FGF21 was tested, as was its ability to interfere with ternary complex formation between βKlotho, FGFR, and either FGF19 or FGF21. FGF19^23-216 and FGF21^29-209 were immobilized on two flow channels of a chip. FGF23^180-251 and the ectodomain of βKlotho were mixed at a molar ratio of 2:1, and the mixture was injected over the chip. Next, FGF23^180-251 and the 1:1 complex of the ectodomains of FGFR1c and βKlotho were mixed at a molar ratio of 10:1, and the mixture was passed over the FGF19/FGF21 chip. […]

- molar excess over FGFR1c-Klotho complex at half-maximum inhibition of FGFR1c-Klotho binding to FGF23^28-251 (FGF23^28-251 chip): 5.7 fold molar excess
- rightward shift of dose-response curve compared to full-length FGF23: ~6 fold
Molecule: CSCC[C@H](NC(=O)[C@H](CCCNC(=N)N)NC(=O)[C@H](C)NC(=O)[C@H](CCCNC(=N)N)NC(=O)[C@@H]1CCCN1C(=O)[C@H](CCCCN)NC(=O)[C@H](CC(C)C)NC(=O)[C@@H](NC(=O)[C@H](CC(N)=O)NC(=O)[C@H](CC(C)C)NC(=O)[C@@H]1CCCN1C(=O)[C@H](CC(=O)O)NC(=O)[C@H](CCCNC(=N)N)NC(=O)[C@H](CCC(=O)O)NC(=O)[C@H](CO)NC(=O)[C@H](CC(=O)O)NC(=O)[C@H](CC(=O)O)NC(=O)[C@H](CCC(=O)O)NC(=O)[C@H](C)NC(=O)[C@@H](N)CO)C(C)C)C(=O)N[C@H](C(=O)N1CCC[C@H]1C(=O)N[C@@H](C)C(=O)N1CCC[C@H]1C(=O)N[C@@H](C)C(=O)N[C@@H](CO)C(=O)O)[C@@H](C)O [FGF23^180-205] (H-SAEDDSERDPLNVLKPRARMTPAPAS-OH; N-terminus and C-terminus assumed)
- inhibition of FGFR1c-Klotho binding to immobilized FGF23^28-251: able to compete, in a dose-dependent fashion

- amount relative to FGFR1c-Klotho complex yielding 50% inhibition of binding to immobilized FGF23^28-251 (FGF23^28-251 chip, control): less than an equimolar amount
B1: FGF23^28-251: human FGF23 (A28 to I251), bioactive full-length ligand expressed in E. coli (protein, listed as Homo sapiens)
chain: ASPLLGSSWGGLIHLYTATARNSYHLQIHKNGHVDGAPHQTIYSALMIRSEDAGFVVITGVMSRRYLCMDFRGNIFGSHYFDPENCRFQHQTLENGYDVYHSPQYHFLVSLGRAKRAFLPGMNPPPYSQFLSRRNEIPLIHFNTPIPRRHTRSAEDDSERDPLNVLKPRARMTPAPASCSQELPSAEDNSPMASDPLGVVRGGRVNTHAGGTGPEGCRPFAKFI

- inhibition of FGFR1c-Klotho binding to immobilized FGF23^28-251: competed, in a dose-dependent fashion
- molar excess over FGFR1c-Klotho complex at half-maximum inhibition of FGFR1c-Klotho binding to FGF23^28-251 (FGF23^28-251 chip): 3.3 fold molar excess
- rightward shift of dose-response curve compared to full-length FGF23: about 3 fold
B2: FGF23^180-251: 72-amino acid C-terminal tail of human FGF23 (S180 to I251), expressed in E. coli (protein, listed as Homo sapiens)
chain: SAEDDSERDPLNVLKPRARMTPAPASCSQELPSAEDNSPMASDPLGVVRGGRVNTHAGGTGPEGCRPFAKFI
